The target of this test is T1, recombinant human p53, N-terminal His tag (human, UniProt P04637 1-393).
T1 construct: human p53, wild type, 393 aa per subunit as printed; plasmid pET15b-His-human p53; also called WT p53; source: E. coli, purified (nickel nitrilotriacetic acid-agarose chromatography)
Description: co-IP; purified PEPD or a PEPD mutant at 100 nM incubated with p53 at 200 nM in PBS, 100 µl, 2 h, room temperature; then PEPD antibody (2 µg) in 300 µl PBS overnight at 4 °C, protein G-agarose, IB. The settings on record: both partners purified.

T1 sequence (P04637 whole entry): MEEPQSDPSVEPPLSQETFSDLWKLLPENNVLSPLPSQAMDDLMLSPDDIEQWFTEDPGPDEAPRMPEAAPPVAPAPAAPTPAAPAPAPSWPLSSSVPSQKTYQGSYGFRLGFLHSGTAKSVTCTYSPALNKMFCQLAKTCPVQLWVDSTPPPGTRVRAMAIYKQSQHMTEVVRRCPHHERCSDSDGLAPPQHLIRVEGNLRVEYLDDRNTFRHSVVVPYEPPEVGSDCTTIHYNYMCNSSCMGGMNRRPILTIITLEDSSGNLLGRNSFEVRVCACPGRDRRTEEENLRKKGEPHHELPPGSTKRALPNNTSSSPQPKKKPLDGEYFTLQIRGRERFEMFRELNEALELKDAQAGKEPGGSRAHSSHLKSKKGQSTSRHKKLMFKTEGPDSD

B1: recombinant human PEPD^265-493aa, C-terminal His tag (domain or fragment, UniProt P12955 265-493, looked up)
chain: RTIQNGDMCLFDMGGEYYCFASDITCSFPANGKFTADQKAVYEAVLRSSRAVMGAMKPGVWWPDMHRLADRIHLEELAHMGILSGSVDAMVQAHLGAVFMPHGLGHFLGIDVHDVGGYPEGVERIDEPGLRSLRTARHLQPGMVLTVEPGIYFIDHLLDEALADPARASFLNREVLQRFRGFGGVRIEEDVVVTDSGIELLTCVPRTVEEIEACMAGCDKAFTPFSGPK
notes: also called C-terminal 229 aa; source: E. coli, purified (nickel nitrilotriacetic acid-agarose chromatography)
In the case of B1, the binding result was “binds”.

The record behind these values is PMC5727116, “PEPD is a pivotal regulator of p53 tumor suppressor” (Nature Communications, 2017).
